These are literature values, as cited in patent US9012177B2, “Methods and compositions for improving sugar transport, mixed sugar fermentation, and production of biofuels” (The Regents of the University of California, priority 2009, dated 2015).

Where two headings read alike, the source gives them in different places.

The conditions of this data set: saturated xylitol, Watanabe et al. (2005b).

B1: psXDH (protein, UniProt P22144 1-363, looked up)
D-xylulose reductase: MTANPSLVLNKIDDISFETYDAPEISEPTDVLVQVKKTGICGSDIHFYAHGRIGNFVLTKPMVLGHESAGTVVQVGKGVTSLKVGDNVAIEPGIPSRFSDEYKSGHYNLCPHMAFAATPNSKEGEPNPPGTLCKYFKSPEDFLVKLPDHVSLELGALVEPLSVGVHASKLGSVAFGDYVAVFGAGPVGLLAAAVAKTFGAKGVIVVDIFDNKLKMAKDIGAATHTFNSKTGGSEELIKAFGGNVPNVVLECTGAEPCIKLGVDAIAPGGRFVQVGNAAGPVSFPITVFAMKELTLFGSFRYGFNDYKTAVGIFDTNYQNGRENAPIDFEQLITHRYKFKDAIEAYDLVRAGKGAVKCLIDGPE
On to B1, for which, under “NAD+”, the Km was 381 µM and the turnover number (kcat) is 17.5 s⁻¹. Further, the kcat (NADP+) was 1.83 s⁻¹.

The term Km denotes the substrate concentration at which the rate is half of its maximum. Usually kcat stands for the maximal rate divided by the concentration of active sites.
